Values belong to the binder of their own block, whether it stands above or below them. Ends that are not written are not given here.
Experiments:
[1] = molecular target: T1, wild-type rat CCK-A receptor (rat, UniProt P30551 1-444); assay: cell-based or functional assay
T1 sequence: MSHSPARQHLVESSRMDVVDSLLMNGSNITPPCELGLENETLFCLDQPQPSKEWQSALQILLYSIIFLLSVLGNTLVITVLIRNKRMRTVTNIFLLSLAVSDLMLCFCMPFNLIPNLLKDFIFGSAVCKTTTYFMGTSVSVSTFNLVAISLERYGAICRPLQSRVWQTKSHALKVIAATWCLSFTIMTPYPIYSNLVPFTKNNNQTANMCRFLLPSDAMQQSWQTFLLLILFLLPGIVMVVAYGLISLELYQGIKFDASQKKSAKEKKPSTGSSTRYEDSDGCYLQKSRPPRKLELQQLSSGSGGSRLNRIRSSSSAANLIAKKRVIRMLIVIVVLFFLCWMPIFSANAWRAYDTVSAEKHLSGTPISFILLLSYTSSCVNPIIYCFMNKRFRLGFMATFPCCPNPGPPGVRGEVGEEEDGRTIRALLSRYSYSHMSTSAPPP

[2] = molecular target: T2, wild-type human CCK-B/gastrin receptor (human, UniProt P32239 1-447); assay: cell-based or functional assay
T2 sequence: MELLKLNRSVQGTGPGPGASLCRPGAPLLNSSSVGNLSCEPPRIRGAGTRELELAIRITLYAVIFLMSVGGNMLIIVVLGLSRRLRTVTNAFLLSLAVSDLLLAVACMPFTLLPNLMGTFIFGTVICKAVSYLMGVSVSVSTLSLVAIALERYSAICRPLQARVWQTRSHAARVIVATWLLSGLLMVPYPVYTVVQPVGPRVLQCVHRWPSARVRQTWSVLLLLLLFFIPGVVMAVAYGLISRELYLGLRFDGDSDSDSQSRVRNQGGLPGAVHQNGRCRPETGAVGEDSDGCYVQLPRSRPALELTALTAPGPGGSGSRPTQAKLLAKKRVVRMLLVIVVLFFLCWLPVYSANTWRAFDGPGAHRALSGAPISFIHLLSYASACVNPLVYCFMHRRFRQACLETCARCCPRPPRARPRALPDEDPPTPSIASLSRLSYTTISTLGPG

[3] = molecular target: T3, constitutively active human CCK-B/gastrin receptor mutant MH162 (^325L→E) (human, UniProt P32239 1-447); assay: cell-based or functional assay
T3 sequence: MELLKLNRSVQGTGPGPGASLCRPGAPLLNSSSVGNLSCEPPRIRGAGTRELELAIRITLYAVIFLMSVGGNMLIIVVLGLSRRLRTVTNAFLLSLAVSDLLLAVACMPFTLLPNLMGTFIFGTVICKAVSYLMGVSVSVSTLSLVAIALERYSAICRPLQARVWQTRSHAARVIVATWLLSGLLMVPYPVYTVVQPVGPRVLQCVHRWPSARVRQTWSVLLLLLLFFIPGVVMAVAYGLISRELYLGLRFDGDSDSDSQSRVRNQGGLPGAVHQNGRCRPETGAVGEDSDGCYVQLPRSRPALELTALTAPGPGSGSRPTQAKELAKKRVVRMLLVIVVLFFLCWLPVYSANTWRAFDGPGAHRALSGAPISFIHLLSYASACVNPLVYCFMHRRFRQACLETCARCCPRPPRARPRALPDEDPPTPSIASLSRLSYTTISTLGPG

[4] = molecular target: T2, wild-type human CCK-B/gastrin receptor; assay: ^125I-CCK-8 competition binding on transfected COS-7 cells
[5] = molecular target: T3, constitutively active human …; assay: as above
[6] = molecular target: T2, wild-type human CCK-B/gastrin receptor; assay: ^125I-CCK-8 competition binding on COS-7 cells transfected with hCCK-B-pcDNAI
Protocol: (§1) COS-7 cells (1.5 ×10^6) were plated in 10-cm culture dishes (Nunc) and grown in Dulbecco's modified Eagle's medium containing 10% fetal calf serum in a 5% CO_2, 95% air incubator at 37° C. After an overnight incubation, cells were transfected (Pacholczyk et al., *Nature* 350:350–354, 1991) with 5–7 μg of a pcDNA I expression vector containing hCCKB (HCCKB-pcDNA I). Twenty-four hours after transfection cells were split into 24-well dishes (2 ×10^4 cells/well) (Costar). After an additional 24 hours, competition binding experiments were performed in Hank's buffer supplemented with 25 mM phenylmethylsulfonyl fluoride (PMSF). […] Equilibrium binding occurred after incubation for 80 min. at 37° C. Cell monolayers were then washed three times, hydrolyzed in 1 N NaOH, and the amount of radioactivity to the receptor was quantified. […] All binding experiments were repeated three to five times.
(§2) The competition data were analyzed using computer software which is specifically designed for the purpose of radioligand binding assays (Inplot 4.0, GraphPad, San Diego, Calif.). Analyses of competition and saturation binding data can also be performed using computerized non-linear curve fitting (McPherson, G. A., *J Pharmacol Methods*, 14:213–28, 1985).

[7] = molecular target: T3, constitutively active human …; assay: ^125I-CCK-8 competition binding; Ki at wild-type receptor over Ki at MH162
Protocol: as §1, §2

CCK-8s stimulated (% human basal) inositol phosphate production [1]: 684 % human basal
B1: sulfated CCK-8 (CCK-8s) (peptide, UniProt P06307 96-103, looked up)
peptide: DYMGWMDF
modifications: not fully specified (residue 2, C-terminus)

Signaling potencies of tested ligands, IC50 [2]: 0.24 nm
Signaling potencies of tested ligands, IC50 [3]: 0.2 nm
Signaling potencies, Ratio (Wild-type/Mutant) [3]: 1.2
Ki [4]: 1.35 nM
Ki [5]: 0.8 nM
IC50 [6]: 0.94 nM
Ratio (Wild-type/Mutant) of Ki [7]: 1.69
B2: Gastrin I (unsulphated gastrin-17) (peptide, UniProt P01350 76-92, looked up)
peptide: QGPWLEEEEEAYGWMDF
modifications: not fully specified (residue 1, C-terminus)
notes: domain: gastrin-17
